Assay results published in patent publication US20110130449.

Assays:
[1] = test system: AR(me2asym)TKQTARKSTGGKAPPK
[2] = test system: AR(me2sym)TKQTARKSTGGKAPPK

| Substance | hydroxylation of the peptide by Jmjd6 (peptide g) | activity (hydroxylation of the peptide by Jmjd6, MALDI-TOF MS) [1] | activity (hydroxylation of the peptide by Jmjd6, MALDI-TOF MS) [2] | hydroxylation of the peptide by Jmjd6 (peptide f) | Jmj6 hydroxylation activity (standard assay, MALDI-TOF MS) (NPKRSRSREHRR (peptide d)) | position of hydroxylation (MS/MS) (NPKRSRSREHRR (peptide d)) | hydroxylation of the peptide (MALDI-TOF MS), large scale (NPKRSRSREHRR (peptide d)) |
| --- | --- | --- | --- | --- | --- | --- | --- |
| N-terminally His6-tagged human Jmjd6 (residues 1-343) | Peptides f and g, which do not contain any lysine residues, were not hydroxylated by Jmjd6. | Double hydroxylation no demethylation | Double hydroxylation no demethylation | Peptides f and g, which do not contain any lysine residues, were not hydroxylated by Jmjd6. | both the truncated Jmjd6 polypeptides and full-length Jmjd6 hydroxylated peptide d | consistent with the hydroxylation of lysine-3 in peptide d, corresponding to lysine 269 in LUC-like2 |  |
| full-length Jmjd6 (recombinant) |  |  |  |  | both the truncated Jmjd6 polypeptides and full-length Jmjd6 hydroxylated peptide d |  | leaving the assay mixture overnight at room temperature till peptide showed complete hydroxylation |
